“And” between values parts separate entries of the source, which are not always exact repeats. Equal entries are not always repeated.
Experiments:
[1] = Bleomycin mouse model of pulmonary fibrosis; format: in vivo
Description: The optimal dose of Bleomycin is 2 U/mouse and the optimal time for assessing fibrocyte recruitment was confirmed at day 4. At days 4 bronchoalvelolar lavage (BAL) fluids were collected for analysis of SDF-1 concentration. One half of the lung tissue was used to make single cell suspensions of the lung and the cells used for flow cytometry and assayed for CD45+, CXCR4+ and Collagen1+ (fibrocytes). The other half of the lung tissue was Sircol stained for the presence of collagen 1 and RNA will be tested for Col-1, Col-3 and SDF-1.
SDF-1, fibrocytes and collagen deposition were monitored at Day 4. Groups were dosed with the i-body just prior to administration with Bleomycin. One half of the lung tissue was minced and washed in PBS and used to make single cell suspensions of the lung with Collagenase A and dispase treatment. The cells were then used for flow cytometry and assayed for CD45+, CXCR4+ and Collagen1+ fibrocytes. […]

CXCR4 = CXCR4 (Homo sapiens, UniProt P61073); assay: β-arrestin BRET assay, antagonist mode with 100 nM SDF-1; format: cell-based; parameters: expressed in transfected cells; host or cells: HEK293FT; settings: various concentrations
Description: (FIGS. 3A-3F and 14) BRET was used in this study to assess the real-time kinetic profiles resulting from any consequent increase in proximity, building upon the previously validated monitoring of GPCR/β-arrestin interactions utilizing BRET. BRET occurs between a complementary Renilla luciferase (Rluc) variant as donor and green fluorescent protein variant as acceptor. Upon Rluc-catalyzed oxidation of the coelenterazine substrate (such as coelenterazine h for first generation BRET (BRET) or EnduRen for extended BRET (eBRET), energy is transferred to the acceptor if within 10 nm, resulting in acceptor light emission peaking at a characteristic wavelength. BRET (3-arrestin assays were carried out as described previously (See, H. B., Seeber, R. M., Kocan, M., Eidne, K. A. and Pfleger, K. D. (2011) ‘Application of G protein-coupled receptor-heteromer identification technology to monitor beta-arrestin recruitment to G protein-coupled receptor heteromers’, Assay Drug Dev Technol, 9(1), 21-30, 10.1089/adt.2010.0336). CXCR4/Rluc8 cDNA constructs were generated from plasmids containing the respective receptor cDNA tagged with Rluc kindly provided by Aron Chakera (Oxford University, United Kingdom). The β-arrestin 2/Venus cDNA construct was prepared previously from pCS2-Venus kindly provided by Atsushi Miyawaki (RIKEN Brain Science Institute, Wako-city, Japan). BRET technology in cells transiently expressing CXCR4/Rluc8 and β-arrestin2/Venus in the presence of 100 nM SDF-1 agonist was evaluated in the presence of the CXCR4 agonist SDF-1/CXCL12 and the i-bodies. HEK293FT cells were maintained at 37° C., 5% CO2 in Complete Media (Dulbecco's modified Eagle's medium containing 0.3 mg/mL glutamine, 100 IU/mL penicillin, and […] streptomycin; Gibco) supplemented with 10% fetal calf serum (FCS) and […] Geneticin (Gibco). Transfections were carried out 24 h after seeding using Genejuice (Novagen) according to manufacturer's instructions. Cells were harvested with 0.05% Trypsin-EDTA (Gibco). HEK293FT cells were transfected using FuGene6 (Promega). 5 μM coelenterazine h (Promega) in HBSS was used as the luciferase substrate solution. Cells were harvested 24 h post-transfection in HEPES-buffered phenol red-free Complete Medium containing 5% FCS and added to a poly-L-lysine-coated white 96-well plate (Nunc). Dose-response curves were generated using BRET, with medium in the plate being replaced with PBS containing […] coelenterazine h (Molecular Probes) and assays carried out immediately. For these assays, 48 h post-transfection, the plate was incubated at […], 5% CO2 for 2 h with […] EnduRen (Promega) to ensure substrate equilibrium was reached. All BRET measurements were taken at 37° C. using the VICTOR Light plate reader with Wallac 1420 software (PerkinElmer). Filtered light emissions were sequentially measured at 400-475 and 520-540 nm. The BRET signal was calculated by subtracting the ratio of 520-540 nm emission over 400-475 nm emission for a vehicle-treated cell sample from the same ratio for a second aliquot of the same cells treated with agonist (in this instance in the presence of SDF-1 or CXCL12) and i-body (ADCX-99, ADCX-272, ACDX-6, ACDX-306, ADCX-668) at various concentrations. Data are mean±S.E.M. of four independent experiments carried out in duplicate.
Binding of the i-bodies to CXCR4 were examined in a β-Arrestin BRET assay as described in See, Heng B et al (2011) Assay and Drug Development Technologies 9(1):21-30. The i-bodes were examined at ten concentrations with and without 100 nM SDF-1 with the addition of ‘vehicle’ and ‘SDF-1+vehicle’ controls in order to characterise if the i-bodies are agonist or antagonists of CXCR4 activity.

[2] = biological target: T1, human CXCR4 (CXCR4 positive lipoparticles) (Homo sapiens, UniProt P61073); assay: Biacore SPR kinetic binding to immobilised CXCR4 lipoparticles
T1 construct: purchased Integral Molecular LEV-101B
Protocol: (FIGS. 2A-2C, 5A-5C, 11A-11D, 17A-17B) Kinetic binding analysis of selected i-bodies with immobilized CXCR4 lipoparticles were performed at 25° C. using Biacore T200 instrument (GE Healthcare, Uppsala, Sweden). Streptavidin immobilization was performed in 1×HBS-P+ running buffer (10 mM HEPES, 150 mM NaCl, 0.05% [v/v] Tween-20). […] All binding experiments involving lipoparticles were performed with 1×HBS/BSA (10 mM HEPES, 150 mM NaCl, 1 mg/mL BSA) as instrument running buffer. […] In order to determine binding kinetics, serial dilutions (three-fold) of i-bodies diluted in 1×HBS/BSA were injected over immobilized lipoparticles with the association and dissociation phases monitored for 60 sec and 600 sec, respectively. A control measurement of the instrument running buffer (“zero-buffer” blank) solution was also included for double referencing purposes. Collected experimental data were processed using Scrubber software (www.biologic.com.au). Kinetic parameters (ka=association and kd=dissociation rate constants) and equilibrium dissociation constant (KD=kd/ka) were derived by fitting each set of experimental data to a Langmuir 1:1 binding model. All interaction measurements were performed in triplicate and the derived binding parameters reported as averaged values±standard deviation.

[3] = off-rate, CXCR4 expressed on lipoparticles (Table 3)
[4] = CXCR4 expressed on lipoparticles (Table 4)

T1 sequence (P61073 whole entry): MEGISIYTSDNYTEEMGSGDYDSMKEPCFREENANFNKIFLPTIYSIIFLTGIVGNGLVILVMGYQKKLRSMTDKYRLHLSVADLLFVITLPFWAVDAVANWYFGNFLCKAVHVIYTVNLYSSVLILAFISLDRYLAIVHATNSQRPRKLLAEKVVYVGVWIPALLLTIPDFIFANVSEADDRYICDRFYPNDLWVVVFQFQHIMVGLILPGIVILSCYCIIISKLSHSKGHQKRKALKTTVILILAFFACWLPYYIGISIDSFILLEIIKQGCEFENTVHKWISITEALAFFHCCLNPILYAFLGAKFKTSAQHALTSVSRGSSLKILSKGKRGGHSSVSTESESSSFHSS
Sequence of CXCR4 (P61073 whole entry): as above

Molecule | dissociation rate constant (kd) [2, 3] | also measured
Cc1ccc(=O)n(-c2ccccc2)c1 [Pirfenidone, reference compound] | – | recruitment of fibrocytes into the lungs ([1]; day 4, dose not given): able to block recruitment of fibrocytes; collagen content of the lung (Sircol) ([1]; positive controls, dose not stated): reduction in collagen
ADCX-6: CXCR4 binding i-body, SEQ ID NO: 17 (protein, protein sequence encoding ADCX-6) LQVDIVPSQGEISVGESKFFLCQVAGLTSLEGISWFSPNGEKLTPNQQRISVVWNDDSSSTLTIYNANIDDAGIYKCVVEDHPQYSKMEEATVNVKIFQ | – | β-arrestin activity (CXCR4): some degree of inhibition
AM4-386: affinity matured i-body, CDR1 SEQ ID NO: 95, CDR3 SEQ ID NO: 96 (protein) LQVDIVPSQGEISVGESKFFLCQVAGITSEGHISWFSPNGEKLTPNQQRISVVWNDDSSSTLTIYNANIDDAGIYKCVVETTVFNEVMRLGNGAHVYEATVNVKIFQ | 0.015 | –
AM3-466: affinity matured CXCR4 i-body, SEQ ID NO: 64 (protein, protein sequence encoding AM3-466) LQVDIVPSQGEISVGESKFFLCQVAGSGSHQRISWFSPNGEKLTPNQQRISVVWNDDSSSTLTIYNANIDDAGIYKCVVWRTGAYRHRALVLGEATVNVKIFQ | 0.00784 | Ka [2, 4]: 465000 M⁻¹ s⁻¹ and 426000 M⁻¹ s⁻¹
AM3-182: affinity matured i-body, CDR1 SEQ ID NO: 99, CDR3 SEQ ID NO: 100 (protein) LQVDIVPSQGEISVGESKFFLCQVAGVGNHIRISWFSPNGEKLTPNQQRISVVWNDDSSSTLTIYNANIDDAGIYKCVVWRAGGYRHRALVLGEATVNVKIFQ | 0.01562 | –
AM4-208: affinity matured i-body, CDR1 SEQ ID NO: 85, CDR3 SEQ ID NO: 86 (protein) LQVDIVPSQGEISVGESKFFLCQVAGSKSEIRISWFSPNGEKLTPNQQRISVVWNDDSSSTLTIYNANIDDAGIYKCVVYRTGGYRHRYLVLGEATVNVKIFQ | 0.01283 | –
AM4-757: affinity matured i-body, CDR1 SEQ ID NO: 93, CDR3 SEQ ID NO: 94 (protein) LQVDIVPSQGEISVGESKFFLCQVAGSKSAIRISWFSPNGEKLTPNQQRISVVWNDDSSSTLTIYNANIDDAGIYKCVVYRTGSYRHRYLVLGEATVNVKIFQ | 0.01488 | –
AM4-352: affinity matured i-body, CDR1 SEQ ID NO: 97, CDR3 SEQ ID NO: 98 (protein) LQVDIVPSQGEISVGESKFFLCQVAGSKDDIRISWFSPNGEKLTPNQQRISVVWNDDSSSTLTIYNANIDDAGIYKCVVYRTGGYRHRYLVLGEATVNVKIFQ | 0.0152 | –
AM4-661: affinity matured CXCR4 i-body, SEQ ID NO: 60 (protein, protein sequence encoding AM4-661) LQVDIVPSQGEISVGESKFFLCQVAGSKSDFRISWFSPNGEKLTPNQQRISVVWNDDSSSTLTIYNANIDDAGIYKCVVYRTGGYRHRYLVLGEATVNVKIFQ | 0.00955 | Ka [2, 4]: 966000 M⁻¹ s⁻¹ and 983000 M⁻¹ s⁻¹; dissociation rate constant (kd) [2, 4]: 9210 M⁻¹ s⁻¹ and 9500 M⁻¹ s⁻¹
AM4-774: affinity matured i-body, CDR1 SEQ ID NO: 83, CDR3 SEQ ID NO: 84 (protein) LQVDIVPSQGEISVGESKFFLCQVAGSKSVIRISWFSPNGEKLTPNQQRISVVWNDDSSSTLTIYNANIDDAGIYKCVVYRTGGYRHRYLVLGEATVNVKIFQ | 0.0105 | –
AM4-239: affinity matured i-body, CDR1 SEQ ID NO: 89, CDR3 SEQ ID NO: 90 (protein) LQVDIVPSQGEISVGESKFFLCQVAGAYSDIRISWFSPNGEKLTPNQQRISVVWNDDSSSTLTIYNANIDDAGIYKCVVYRTGGYRHRYLVLGEATVNVKIFQ | 0.01356 | –
AM3-32: affinity matured i-body, CDR1 SEQ ID NO: 91, CDR3 SEQ ID NO: 92 (protein) LQVDIVPSQGEISVGESKFFLCQVAGSGSGITISWFSPNGEKLTPNQQRISVVWNDDSSSTLTIYNANIDDAGIYKCVVWRTGVYRHRALVLGEATVNVKIFQ | 0.0136 | –
AM4-203: affinity matured i-body, CDR1 SEQ ID NO: 101, CDR3 SEQ ID NO: 102 (protein) LQVDIVPSQGEISVGESKFFLCQVAGSYGDIRISWFSPNGEKLTPNQQRISVVWNDDSSSTLTIYNANIDDAGIYKCVVYRTGGWRHRYLVLGEATVNVKIFQ | 0.01621 | –
AM4-613: affinity matured CXCR4 i-body, SEQ ID NO: 52 (protein, protein sequence encoding AM4-613) LQVDIVPSQGEISVGESKFFLCQVAGSKSDVRISWFSPNGEKLTPNQQRISVVWNDDSSSTLTIYNANIDDAGIYKCVVWRTGGYRHRYLVLGEATVNVKIFQ | 0.01236 | Ka [2, 4]: 1.334e+06 M⁻¹ s⁻¹; dissociation rate constant (kd) [2, 4]: 10440 M⁻¹ s⁻¹
